Measured values from publication PMC11119474.

Target: HFE-WT-flagM2 (homeostatic iron regulator protein) with β2M-flagM2 (UniProt Q30201)

HFE level by Western blot in HepG2 PCSK9 KO cells expressing HFE/β2M after 18 h with conditioned medium containing WT PCSK9 (Figure 2A): 60 % reduction
Substance: PCSK9-WT-V5 (proprotein convertase subtilisin/kexin type 9, wild type) (from UniProt Q8NBP7 31-152; Q8NBP7 153-692) (natural protein)
